Patent US20070280945A1 (Regeneron, published 2007)

T1: hIL-6R-hFc (human, UniProt P08887 20-358)
T1 construct: also called dimeric hIL-6R; Dimer; not shown: human Fc (hFc)
T1 sequence: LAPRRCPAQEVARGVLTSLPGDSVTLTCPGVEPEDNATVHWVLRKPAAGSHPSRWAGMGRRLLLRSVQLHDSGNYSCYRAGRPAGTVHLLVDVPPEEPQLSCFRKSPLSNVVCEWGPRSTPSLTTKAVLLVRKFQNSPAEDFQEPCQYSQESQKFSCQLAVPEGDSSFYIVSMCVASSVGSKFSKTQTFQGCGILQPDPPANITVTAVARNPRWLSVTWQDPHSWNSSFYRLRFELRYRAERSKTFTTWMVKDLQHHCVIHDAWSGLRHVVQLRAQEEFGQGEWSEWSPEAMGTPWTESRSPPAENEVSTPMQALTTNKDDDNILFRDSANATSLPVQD

T2: hIL-6R recombinant protein (plate-coated, Example 5) (human, UniProt P08887 20-358, limits assumed)
T2 construct: also called antigen
T2 sequence: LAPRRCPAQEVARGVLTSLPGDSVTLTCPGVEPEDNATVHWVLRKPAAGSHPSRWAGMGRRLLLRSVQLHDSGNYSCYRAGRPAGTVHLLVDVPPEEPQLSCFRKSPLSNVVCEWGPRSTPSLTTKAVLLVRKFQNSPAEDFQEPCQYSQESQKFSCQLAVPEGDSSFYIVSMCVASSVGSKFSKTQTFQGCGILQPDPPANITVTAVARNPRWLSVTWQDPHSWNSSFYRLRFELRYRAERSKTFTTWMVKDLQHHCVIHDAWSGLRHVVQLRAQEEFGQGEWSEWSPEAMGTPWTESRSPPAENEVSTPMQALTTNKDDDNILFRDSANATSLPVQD

T3: recombinant hIL-6R protein, monomeric form (human, UniProt P08887 20-358)
T3 construct: also called monomeric hIL-6R; Human IL6R
T3 sequence: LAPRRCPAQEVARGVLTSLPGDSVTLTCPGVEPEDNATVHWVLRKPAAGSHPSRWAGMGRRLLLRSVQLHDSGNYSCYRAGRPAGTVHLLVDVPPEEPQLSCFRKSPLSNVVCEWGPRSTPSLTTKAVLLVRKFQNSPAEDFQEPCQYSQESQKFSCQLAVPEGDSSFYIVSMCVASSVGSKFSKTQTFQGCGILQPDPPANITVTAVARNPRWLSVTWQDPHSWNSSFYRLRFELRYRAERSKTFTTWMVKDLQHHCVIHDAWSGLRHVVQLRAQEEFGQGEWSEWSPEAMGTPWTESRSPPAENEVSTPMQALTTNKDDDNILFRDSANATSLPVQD

T4: hIL-6R on hIL-6-responsive human cells (XG-1 myeloma line, HepG2 hepatoma line) (human, UniProt P08887 20-468)
T4 sequence (looked up): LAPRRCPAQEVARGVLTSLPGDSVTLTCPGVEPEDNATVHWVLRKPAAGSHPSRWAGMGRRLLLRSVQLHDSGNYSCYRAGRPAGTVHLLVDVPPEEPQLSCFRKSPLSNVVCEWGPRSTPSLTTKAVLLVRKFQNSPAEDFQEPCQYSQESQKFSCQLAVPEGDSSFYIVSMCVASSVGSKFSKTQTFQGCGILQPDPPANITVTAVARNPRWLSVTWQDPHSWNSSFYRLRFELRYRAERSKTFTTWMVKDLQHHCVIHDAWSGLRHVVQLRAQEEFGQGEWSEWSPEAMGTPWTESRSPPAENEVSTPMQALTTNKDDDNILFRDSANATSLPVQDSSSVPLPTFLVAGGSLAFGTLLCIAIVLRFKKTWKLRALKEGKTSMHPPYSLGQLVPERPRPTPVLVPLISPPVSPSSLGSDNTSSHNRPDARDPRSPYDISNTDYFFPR


What was measured:
hIL-6R-hFc [1] = target: T1, hIL-6R-hFc; assay: competition ELISA: antibody premixed with serial dilutions of hIL-6R-hFc, free antibody detected on hIL-6R-hFc-coated plate
hIL-6R-hFc [2] = target: T1, hIL-6R-hFc; assay: blocking ELISA: 100 pM hIL-6R-hFc premixed with varied antibody, free hIL-6R-hFc captured on hIL-6-coated plate
[3] = target: T2, hIL-6R recombinant protein …; assay: competition ELISA on hIL-6R-coated plate presaturated with competitor control antibody; test antibody 50 ng/ml
[4] = target: T3, recombinant hIL-6R protein, monomeric …; assay: SPR (BIAcore), antibody captured on goat anti-human Fc, monomeric hIL-6R 1.56-12.5 nM
[5] = target: T4, hIL-6R on hIL-6-responsive human cells …; assay: cell-based or functional assay
[6] = target: T3, recombinant hIL-6R protein, monomeric …; assay: Kinexa solution-phase competition immunoassay, monomeric hIL-6R
hIL-6R-hFc [7] = target: T1, hIL-6R-hFc; assay: SPR (BIAcore): hIL-6R-hFc captured, antibody injected, then 50 nM hIL-6; percent reduction in hIL-6 binding
[8] = target: T4, hIL-6R on hIL-6-responsive human cells …; assay: cell-based or functional assay; remark: listed apart in the source
[9] = target: T2, hIL-6R recombinant protein …; assay: SPR (BIAcore) competition on hIL-6R; competitor: control antibody
hIL-6R-hFc [10] = target: T1, hIL-6R-hFc; assay: SPR (BIAcore), antibody captured on anti-mouse IgG surface, dimeric hIL-6R
[11] = target: T3, recombinant hIL-6R protein, monomeric …; assay: SPR (BIAcore), antibody captured on anti-mouse IgG surface, monomeric hIL-6R

Row | IC50 (hIL-6R-hFc [1]) [pM] | IC50 (hIL-6R-hFc [2]) [pM] | % reduction of binding by control antibody [3] [%] | Kd [4] [pM] | koff [4] [s⁻¹] | kon [4] [M⁻¹ s⁻¹] | HepG2/STAT3 luciferase assay IC50 [5] [pM] | Binder | also measured
1 | 1980 | 13000 | 26 |  |  |  |  | VV7G4-10 (antibody, V domains shown, Human variable regions with mouse constant region) VH: QVQLVQSGAEVKKPGASVKVSCKASGYTFTSYGISWVRQAPGQGLEWMGWISAYNDDTNYAQKFQGRVTMTTDTSTSTAYMELRSLRSDDTAVYYCAREAQLVLYYYYGMDVWGQGTTVTVSS VL: EIVLTQSPATLSLSPGERATLSCRASQSVSSFLAWNQQKPGQAPRLLIYDASNRATGIPARFSGSGSGTDFTLTISSLEPEDFAVYYCQQRSNWPYIFGQGTKLEIK | 
2 | 347 | 500 | 18 |  |  |  |  | VV9A6-11 (antibody, V domains shown, Human variable regions with mouse constant region) VH: QVQLVQSGAEVKKPGASVKVSCKASGYTFTSYGISWVRQAPGQGLEWMGWISAYNDDTNYAQKFQGRVTMTTDTSTSTAYMELRSLRSDDTAVYYCAREAQLVLYYYYGMDVWGQGTTVTVSS VL: EIVLTQSPATLSLSPGERATLSCRASQSVSSFLAWNQQKPGQAPRLLIYDASNRATGIPARFSGSGSGTDFTLTISSLEPEDFAVYYCQQRSNWPYIFGQGTKLEIK | 
3 |  |  |  | 238 | 0.00026 | 1.09e+06 | 130 | VQ8A9-6 hIgG1 (antibody, V domains shown, Human IgG1 constant region) VH: EVQLVESGGNLVQPGRSLRLSCAASGFIFDDYAMHWVRQAPGKGLEWVSGISWNSGSIGYADSVKGRFTISRDNAKNSLYLQMNSLRAEDTALYYCAKDGGSSWLPFVYYYGMDVWGQGTTVTVSS VL: EIVMTQSPATLSVSPGERATLSCRASQSISSNFAWYQQKPGQAPRLLIYGASTRATGIPARFSGSGSGTDFTLTISSLQSEDFAVYYCQQYSSWPPYTFGQGTKLEIK | 
4 |  |  |  | 201 | 0.000235 | 1.17e+06 | 185 | VQ8A9-6 hIgG4 (antibody, V domains shown, Human IgG4 constant region) VH: EVQLVESGGNLVQPGRSLRLSCAASGFIFDDYAMHWVRQAPGKGLEWVSGISWNSGSIGYADSVKGRFTISRDNAKNSLYLQMNSLRAEDTALYYCAKDGGSSWLPFVYYYGMDVWGQGTTVTVSS VL: EIVMTQSPATLSVSPGERATLSCRASQSISSNFAWYQQKPGQAPRLLIYGASTRATGIPARFSGSGSGTDFTLTISSLQSEDFAVYYCQQYSSWPPYTFGQGTKLEIK | 
5 | 9 | 60 | 1 |  |  |  |  | VV6C10-3 (antibody, V domains shown, Human variable regions with mouse constant region) VH: QVQLVQSGAEVKKPGASVKVSCKASGFNFFHYGITWVRQAPGQGLEWMGWISTYNGDTIYAQKVQGRVTMTTDTATSTAYMELRSLRSDDTAVYYCARSEQQVDYYFYGMDVWGQGTTVTVSS VL: EIVLTQSPATLSLSPGERATLSCRASQSVSSYLAWYQQKPGQAPRLLIYDASNRATGIPARFSGSGSGTDFTLTISSLEPEDFAFYYCQQRNNRPPFTFGPGTKVDVR | 
6 | 33 | 2200 | 3 |  |  |  |  | VV6F12-11 (antibody, V domains shown, Human variable regions with mouse constant region) VH: QVQLVQSGAEVKEPGASVKISCKASGYTFTSYDIIWVRQATGQGLEWMGWMNPNSGDRGYTQNLQGRVTLTRDTSISTVYMELSSLRSEDTAVYYCARDYSNHYYGLDVWGQGTTVTVSS VL: DIQLTQSPSFLSASVGDRVTITCWASQDISNYLAWYQQKPGKAPKLLIFVASTLQSGVPSRFSGSGSGTEFTLTISSLQPEDFATYYCQQFNSYPLTFGGGTKVEIR | 
7 |  |  |  | 237 | 7.92e-05 | 334000 | 767 | VQ1G4-21 hIgG1 (antibody, V domains shown, Human IgG1 constant region) VH: QVQLVQSGAEVKEPGASVKVSCKASGYTFTSYDIIWVRQATGQGLEWMGWMNPNSGNTGYTQNLQGRVTLTRNTSITTVYMELSSLSSEDTAVYYCARDYSSHYYGLDVWGQGTTVTVSS VL: DIQLTQSPSFLSTSIGDRVTITCWASQDISNYLAWYQQKPGKAPKLLIFVASTLQSGVPSRFSGSGSGTEFTLTISSLQPEDFATYYCQQFNSYPLTFGGGTKVEIK | 
8 |  |  |  | 336 | 9.18e-05 | 273000 | 528 | VQ1G4-21 hIgG4 (antibody, V domains shown, Human IgG4 constant region) VH: QVQLVQSGAEVKEPGASVKVSCKASGYTFTSYDIIWVRQATGQGLEWMGWMNPNSGNTGYTQNLQGRVTLTRNTSITTVYMELSSLSSEDTAVYYCARDYSSHYYGLDVWGQGTTVTVSS VL: DIQLTQSPSFLSTSIGDRVTITCWASQDISNYLAWYQQKPGKAPKLLIFVASTLQSGVPSRFSGSGSGTEFTLTISSLQPEDFATYYCQQFNSYPLTFGGGTKVEIK | 
9 | 13 | 610 | 84 |  |  |  |  | VV3D8-4 (antibody, V domains shown, Human variable regions with mouse constant region) VH: EVQLVESGGGLVQPGRSLRLSCAASGFTFDDYALHWVRQAPGKGLEWVSGISWNSGRIGYADSVKGRFTISRDNAKNSLFLQMNSLRAEDTALYYCAKGRDAFDIWGQGTLVTVSS VL: DIQMTQSPSSVSASVGDRVTITCRASQGISSWLAWYQQKPGKAPKLLIYAASSLQSGVPSRFSGSGSGTDFTLTISSLQPEDFATYYCQQANSFPYTFGQGTKLEIK | Kd [6]: 1910 pM; hIL6/hIL6R Binding Inhibition (%) (hIL-6R-hFc [7]): 93%; XG-1 cell proliferation Inhibition IC50 [8]: > 100000 pM; % reduction of binding by control antibody [9]: 97%; Kd (hIL-6R-hFc [10]): 172 pM; Kd [11]: 2410 pM
10 |  |  |  | 135 | 7.64e-05 | 567000 | 343 | VV6A9-5 hIgG4 (antibody, V domains shown, Human IgG4 constant region) VH: EVQLVESGGGLVQPGRSLRLSCAASGFTFDDYALHWVRQAPGKGLEWVSGVSWNGGRIGYADSVKGRFTISRDNAKNSLFLQMNSLRVEDTALYYCAKGRDAFDIWGQGTLVTVSS VL: DIQMTQSPSSVSASVGDRVTITCRASQGISSWLAWYQQKPGKAPKLLIYAASSLQSGVPSRFSGSGSGTDFTLTISSLQPEDFATYYCQHAYSFPYTFGQGTKLEIK | 
11 |  |  |  | 125 | 8.87e-05 | 712000 | 204 | VV6A9-5 hIgG1 (antibody, V domains shown, Human IgG1 constant region) VH: EVQLVESGGGLVQPGRSLRLSCAASGFTFDDYALHWVRQAPGKGLEWVSGVSWNGGRIGYADSVKGRFTISRDNAKNSLFLQMNSLRVEDTALYYCAKGRDAFDIWGQGTLVTVSS VL: DIQMTQSPSSVSASVGDRVTITCRASQGISSWLAWYQQKPGKAPKLLIYAASSLQSGVPSRFSGSGSGTDFTLTISSLQPEDFATYYCQHAYSFPYTFGQGTKLEIK | 
12 |  |  |  | 73 | 5.22e-05 | 717000 | 228 | VQ8F11-21 hIgG4 (antibody, V domains shown, Human IgG4 (wild-type) constant region) VH: EVQLVESGGGLVQPGRSLRLSCAASRFTFDDYAMHWVRQAPGKGLEWVSGISWNSGRIGYADSVKGRFTISRDNAENSLFLQMNGLRAEDTALYYCAKGRDSFDIWGQGTMVTVSS VL: DIQMTQSPSSVSASVGDRVTITCRASQGISSWLAWYQQKPGKAPKLLIYGASSLESGVPSRFSGSGSGTDFTLTISSLQPEDFASYYCQQANSFPYTFGQGTKLEIK | 
13 |  |  |  | 73 | 4.54e-05 | 622000 | 150 | VQ8F11-21 hIgG1 (antibody, V domains shown) VH: EVQLVESGGGLVQPGRSLRLSCAASRFTFDDYAMHWVRQAPGKGLEWVSGISWNSGRIGYADSVKGRFTISRDNAENSLFLQMNGLRAEDTALYYCAKGRDSFDIWGQGTMVTVSS VL: DIQMTQSPSSVSASVGDRVTITCRASQGISSWLAWYQQKPGKAPKLLIYGASSLESGVPSRFSGSGSGTDFTLTISSLQPEDFASYYCQQANSFPYTFGQGTKLEIK | 
